{"source": "patent US20130171217A1", "about": "“ENZYMATIC PERACID GENERATION FOR USE IN SKIN CARE PRODUCTS” (E I DU PONT DE NEMOURS AND COMPANY, priority 2010, published 2013)", "key": {"[1]": {"assay": "Retention of perhydrolase on hair detected by hydrolase activity", "assay_type": "binding", "details": "for Activity in the first TWEEN®-20 wash / Activity retained on hair after 4 TWEEN® 20 washes / Activity unbound: hydrolase activity; for Activity in the first TWEEN®-20 wash: 1% TWEEN®-20; for Activity retained on hair after 4 TWEEN® 20 washes: 4 washes 1% TWEEN®-20 and 2 buffer washes; for Activity unbound: ~20 mg hair, binding 30 min; for 100% activity (hydrolase activity added to the tube): tube containing ~20 mg of hair, not subjected to washes", "protocol": "For hair binding experiments brown hair tresses (International Hair Importers and Products, Glensdale N.Y.) were used. The hair was washed with 2% SLES, rinsed extensively with deionized water and air dried.\nAround 20 mg of 1 cm brown hair fragments was added in a 1.8-mL microfuge tube. Hydrolase assay buffer (1.2 mL) as added to the hair followed by the addition of the perhydrolase enzymes to the solution. The enzymes were allowed to bind the hair for 30 min with gentle agitation (24 rpm) on an Adams Nutator (model 1105, Becton Dickinson, Franklin Lakes, N.J.). No enzyme controls, with hair and without hair, were included in the binding experiment to account for non-enzymatic hydrolysis of the pNPA hydrolase reagent. After the binding step, a 1.0-mL aliquot of the binding buffer was transferred to a new tube to quantitate the amount of unbound enzyme. Additional binding buffer was removed and the hair fragments were washed 4 times with 1 mL of 1% TWEEN®-20 in hydrolase buffer, followed by 2 washes with 1 mL each in hydrolase buffer. The hair fragments were then resuspended in 1 mL of hydrolase assay and the hydrolase activity that remained bound to the hair was measured. The C277S (“PAH”) variant of Thermotoga maritima perhydrolase (SEQ ID NO: 293) was used as a control for an un-targeted perhydrolase."}, "[2]": {"assay": "Compatibility of perhydrolase with commercial moisturizer lotion, PAA indicator strip", "assay_type": "physicochemical", "details": "~0.1 mg/mL in lotion, room temperature (~21° C.)", "protocol": "Lotion “A” was prepared by mixing 0.7667 g of SUAVE® Advanced Therapy Moisturizer (Lot#12148JU41, Unilever, CT) with 40 μL of perhydrolase fusion C277S-HC263 (10 mg/mL) in a 2-mL microfuge using an overhead mixer at 200 rpm for about 3 min. The concentration of C277S-HC263 (SEQ ID NO: 288) was about 0.1 mg/mL in lotion A.\nTwo control samples, i.e., A-control1 and A-control2, were prepared by replacing perhydrolase (C277S-HC263; SEQ ID NO: 288) with same volume of DI water and 50 mM phosphate buffer (pH 8), respectively.\nSolution “B” was made by combining 44 μl of triacetin, 899 μL of 50 mM, pH 8, phosphate buffer, and 57 μL of H2O2 (30 wt %). Solution B was freshly made every time just before running the PAA indicator strip test.\nAfter a predetermined time, 50 μl of lotion “A” and 50 μl of solution “B” were mixed gently for about 1 min. PAA indicator strips were used to test for the presence of PAA in the mixture as described in Example 10."}, "[3]": {"assay": "Two-step treatment of hair tresses, color loss ΔE", "details": "for Color loss ΔE: 0.75 M H2O2, 1 M TA; for ΔE of color loss: 2500 μg/mL", "protocol": "After every fourth cycle the tresses were dried under air and color measurements were made using X-RITE® SP64 spectrophotometer (X-Rite, Grandville, Mich.) with 4 mm port. Color numbers were measured at D65/10° from reflectance, according to CIELAB76. Hair tresses (all 4 replicates) were placed under a card paper with punched out holes, making sure that the background was not visible. The port-hole of the spectrophotometer was centered on the hole to scan the hair sample underneath. The tress-bundle was turned over and placed under the card and an additional measurement was made. Average L*, a*, b* (color according to CIELAB76) values were recorded.\nΔE of color loss was calculated according to the following formula:\nΔE=√{square root over (((L1*−L0)̂2+(a1*−a0)̂2+(b1*−b0)̂2))}{square root over (((L1*−L0)̂2+(a1*−a0)̂2+(b1*−b0)̂2))}{square root over (((L1*−L0)̂2+(a1*−a0)̂2+(b1*−b0)̂2))}\nL1*, a1* and b1* are L*, a* and b* values for a sample tress after treatment, L0*, a0* and b0* are L*, a* and b* values for untreated hair"}, "[4]": {"assay": "Assay for bound perhydrolase enzyme activity after treatment cycles (ABTS)", "assay_type": "binding", "protocol": "The enzyme used in the following example was HC1121 (T. maritima C277S-HC263; SEQ ID NO: 288) and concentration used was 2500 μg/mL (E/H=10*). Enzyme solution was made in 5% TWEEN®-20 surfactant in 50 mM citrate buffer at pH 6. Approximately 0.8 mL of the enzyme solution was applied on ˜200 mg hair samples (4 test tresses) for 10 minutes. H2O2 and triacetin, formulations were made according to Example 24, in 20% LUBRIDERM® lotion in 50 mM citrate buffer at pH 6. After application of 400 μL each of the reagents, the treatment was allowed to continue for 20 minutes after which the hair was rinsed with tap-water and allowed to dry. Before proceeding with the next cycle the sample was subjected to the surfactant wash with 5% TWEEN®-20 in 50 mM citrate buffer at pH 6 and rinsed with tap-water.\nAfter treatment for a defined number of cycles, 10 mg of hair was cut from each tress and placed into 2 mL microcentrifuge tubes (Eppendorf Protein LoBind; Eppendorf North America, Hauppauge, N.Y.). To each tube was added 480 uL of PAH buffer (50 mM potassium phosphate pH 7.2), 14 μL of 30% hydrogen peroxide (Sigma 3410), and 6 μL triacetin (Sigma-Aldrich, W200700). The perhydrolase reaction was allowed to proceed for 10 minutes at 25° C. The reaction was stopped by diluting aliquots 10×, 100× and 1000× with 10 mM phosphoric acid. For detection, 50 μL of 1 M acetic acid, 50 μL of 40 mg/mL potassium iodide, and 50 μL of 4 mM ABTS (2,2′-azino-bis(3-ethylbenzthiazoline-6-sulphonic acid; Sigma, St Louis, Mo.) were added to 50 μL of the above dilutions. Color was allowed to develop for 10 minutes and read in a spectrophotometer at 405 nm. Values from no-enzyme controls were subtracted to yield values attributable only to enzyme activity. A standard curve of OD 405 nm vs PAA concentration in ppm yielded a conversion factor of 8.75, such that an OD 405 nm of 1.0 corresponded to approximately 8.75 ppm PAA. This value was then multiplied by the appropriate dilution to arrive at the PAA concentration in the perhydrolase reaction."}}, "data": [{"molecule": "C277S: non-targeted C277S variant of the Thermotoga maritima perhydrolase, un-targeted control (protein, listed as Thermotoga maritima) MAFFDLPLEELKKYRPERYEEKDFDEFWEETLAESEKFPLDPVFERMESHLKTVEAYDVTFSGYRGQRIKGWLLVPKLEEEKLPCVVQYIGYNGGRGFPHDWLFWPSMGYICFVMDTRGQGSGWLKGDTPDYPEGPVDPQYPGFMTRGILDPRTYYYRRVFTDAVRAVEAAASFPQVDQERIVIAGGSQGGGIALAVSALSKKAKALLCDVPFLCHFRRAVQLVDTHPYAEITNFLKTHRDKEEIVFRTLSYFDGVNFAARAKIPALFSVGLMDNISPPSTVFAAYNYYAGPKEIRIYPYNNHEGGGSFQAVEQVKFLKKLFEKG", "values": [{"measurement": "Activity in the first TWEEN®-20 wash", "setting": "[1]", "value": 5, "unit": "%"}, {"measurement": "Activity retained on hair after 4 TWEEN® 20 washes", "setting": "[1]", "value": 1, "unit": "%"}, {"measurement": "Activity unbound", "setting": "[1]", "value": 103, "unit": "%"}, {"measurement": "100% activity (hydrolase activity added to the tube)", "setting": "[1]", "value": 148, "unit": "µmol/min"}]}, {"molecule": "C277S-HC263: C277S variant of Thermotoga maritima perhydrolase fused via a flexible linker to hair-binding domain HC263 (protein) MAFFDLPLEELKKYRPERYEEKDFDEFWEETLAESEKFPLDPVFERMESHLKTVEAYDVTFSGYRGQRIKGWLLVPKLEEEKLPCVVQYIGYNGGRGFPHDWLFWPSMGYICFVMDTRGQGSGWLKGDTPDYPEGPVDPQYPGFMTRGILDPRTYYYRRVFTDAVRAVEAAASFPQVDQERIVIAGGSQGGGIALAVSALSKKAKALLCDVPFLCHFRRAVQLVDTHPYAEITNFLKTHRDKEEIVFRTLSYFDGVNFAARAKIPALFSVGLMDNISPPSTVFAAYNYYAGPKEIRIYPYNNHEGGGSFQAVEQVKFLKKLFEKGGPGSGGAGSPGSAGGPGSPSAQSQLPDKHSGLHERAPQRYGPEPEPEPEPIPEPPKEAPVVIEKPKPKPKPKPKPPAHDHKNQKETHQRHAAGSGGGGSPHHHHHH", "values": [{"measurement": "time perhydrolase activity retained in SUAVE® moisturizer", "setting": "[2]", "value": "at least 30 days"}, {"measurement": "Activity in the first TWEEN®-20 wash", "setting": "[1]", "value": 9, "unit": "%"}, {"measurement": "Activity retained on hair after 4 TWEEN® 20 washes", "setting": "[1]", "value": 54, "unit": "%"}, {"measurement": "Activity unbound", "setting": "[1]", "value": 52, "unit": "%"}, {"measurement": "100% activity (hydrolase activity added to the tube)", "setting": "[1]", "value": 53, "unit": "µmol/min"}, {"measurement": "Color loss ΔE", "setting": "[3]; 750 μg/mL (E/H 3), 40 min/cycle", "value": 8}, {"measurement": "Color loss ΔE", "setting": "[3]; 1500 μg/mL (E/H 5), 20 min/cycle", "value": 7}, {"measurement": "Color loss ΔE", "setting": "[3]; 1750 μg/mL (E/H 7), 40 min/cycle", "value": 10}, {"measurement": "Color loss ΔE", "setting": "[3]; 2500 μg/mL (E/H 10), 20 min/cycle", "value": 10}, {"measurement": "Color loss ΔE", "setting": "[3]; 2500 μg/mL (E/H 10), 40 min/cycle", "value": 9}, {"measurement": "ΔE of color loss", "setting": "[3]; 4 cycles", "value": 4}, {"measurement": "ΔE of color loss", "setting": "[3]; 8 cycles", "value": 6}, {"measurement": "ΔE of color loss", "setting": "[3]; 12 cycles", "value": 8}, {"measurement": "ΔE of color loss", "setting": "[3]; 16 cycles", "value": 11}, {"measurement": "OD 405nm", "setting": "[4]; 10 mg hair after 1 cycle", "value": 0.172}, {"measurement": "PAA", "setting": "[4]; 10 mg hair after 1 cycle, 10 min reaction", "value": 150.8, "unit": "ppm"}, {"measurement": "OD 405nm", "setting": "[4]; 10 mg hair after 4 cycles", "value": 0.439}, {"measurement": "PAA", "setting": "[4]; 10 mg hair after 4 cycles", "value": 384.1, "unit": "ppm"}, {"measurement": "OD 405nm", "setting": "[4]; 10 mg hair after 8 cycles", "value": 0.901}, {"measurement": "PAA", "setting": "[4]; 10 mg hair after 8 cycles", "value": 788.4, "unit": "ppm"}, {"measurement": "OD 405nm", "setting": "[4]; 10 mg hair after 12 cycles", "value": 1.287}, {"measurement": "PAA", "setting": "[4]; 10 mg hair after 12 cycles", "value": 1126.1, "unit": "ppm"}, {"measurement": "OD 405nm", "setting": "[4]; 10 mg hair after 16 cycles", "value": 1.894}, {"measurement": "PAA", "setting": "[4]; 10 mg hair after 16 cycles", "value": 1657, "unit": "ppm"}]}]}
